Experimental data reported in US20060024786.

Tested on: full length human N-WASP (Myc-N-WASP-TAP)

N_GST_tev_Rac1 GTP (bacterial GST tagged Rac1 protein)
activation of FL N-WASP (barbed ends, actin polymerization assay): Rac1 can activate FL N-WASP | activation of FL N-WASP against Cdc42: Rac1 was a more potent N-WASP activator than Cdc42 in the absence of PIP2 vesicles | dose dependence of barbed end concentration: there is a bell shaped dose dependence for Nck1, Nck2 and Rac1
